# Laboratory results reported in patent US20240245805A1 (Orna Therapeutics, Inc., priority 2020, published 2024).
# B1: Zika Virus (nucleic acid, listed as Zika virus)
# DNA: AGTTGTTGATCTGTGTGAGTCAGACTGCGACAGTTCGAGTCTGAAGCGAGAGCTAACAACAGTATCAACAGGTTTAATTTGGATTTGGAAACGAGAGTTTCTGGTC
# modifications: chemistry not fully specified; the letters are possibly those of the target site
# B2: GB virus C/Hepatitis G virus (nucleic acid)
# chain: CCCCCGGCACTGGGTGCAAGCCCCAGAAACCGACGCCTATCTAAGTAGACGCAATGACTCGGCGCCGACTCGGCGACCGGCCAAAAGGTGGTGGATGGGTGATGACAGGGTTGGTAGGTCGTAAATCCCGGTCACCTTGGTAGCCACTATAGGTGGGTCTTAAGAGAAGGTTAAGATTCCTCTTGTGCCTGCGGCGAGACCGCGCACGGTCCACAGGTGTTGGCCCTACCGGTGGGAATAAGGGCCCGACGTCAGGCTCGTCGTTAAACCGAGCCCGTTACCCACCTGGGCAAACGACGCCCACGTACGGTCCACGTCGCCCTTCAATGTCTCTCTTGACCAATAGGCGTAGCCGGCGAGTTGACAAGGACCAGTGGGGGCCGGGGGCTTGGAGAGGGACTCCAAGTCCCGCCCTTCCCGGTGGGCCGGGAAATGC
# modifications: lipid formulation; source: /note="Description of Unknown: GB virus C/Hepatitis G virus sequence"
# B3: Yokose virus (nucleic acid, listed as Yokose virus)
# DNA: AGTAAATTTTGCGTGCTAGTCGCTGAGCGTCAGACCGCAAAGTGAGTTTTTAGTGATCTAAAGTGAGGAGTTATTCTTACTGTCATCAAACACTACAAATAAACACGTTGAAATTATTTCCGGAAGAACAACTGTCCGGAATCAAAGACG
# modifications: lipid formulation
# B4: Equine hepacivirus (nucleic acid, listed as Hepacivirus sp.)
# chain: ACCTCCGTGCTATGCACGGTGCGTTGTCAGCGTTTTGCGCTTGCATGCGCTACACGCGTCGTCCAACGCGGAGGGATTCTTCCACATTACCATGTGTCACTCCCCCTATGGAGGGTTCCACCCCGCCCACACGGAAATAGGTTAACCATACCTATAGTACGGGTGAGCGGGTCCTCCTAGGGCCCCCCCGGCAGGTCGAGGGAGCTGAAATTCGTGAATCCGTGAGTACACGGAAATCGCGGCTTGAACGTCATACGTGACCTTCGGAGCCGAAATTTGGGCGTGCCCCACGAAGGAAGGCGGGGGCGGTGTTGGGCCGCCGCCCCCTTTATCCCACGGTCTGATAGGATGCTTGCGAGGGCACCTGCCGGTCTCGTAGACCATAGGAC
# modifications: lipid formulation
# B5: Sakobuvirus A FFUP1 (1x mut) (nucleic acid)
# DNA: TCACGCGCTTTTCCGGTGGTCACCCACCGTTAGGGAGCGCCAGCGTTCGCGCTTCCGCTACCAGGTGACACACTCCTTTCCCCTCCCCCATTCCCGTTCCCATCCTCTGGACTGGTTTCTCCTCACGATTGACCAGCAGCTGGGAGCTGTTACCAGACGTTGGACAGTAAGTCCCGGATGCACTATAGGGCTGGTGGCTAGTGCTTGGTAAGCACTCAACGCCATACCTAATGTGTACCTCGGCTTGCCCTCCTGGTCGTGGTGACCGGCTGTTTCTCTTCCCTTGGCTCCAGACGGGCTGGTGTCCTACCACCACCGTTGCATGCAGACCTCCCCCTGCGCACTCGAACGCCCTGTCCCAGCAGGGTTAGTATGTGCTGTGCAGATCTGCATGTGACACCCCATCCACTGGTAGAGCAGGAAGTTGCCCTAGCTAACGCGGCAAGTATTACTTTCCGCTACACGTCCTTGAGATTCCTCGGACCTCTGGAACTAGGGTGACTGTGGGCTTGGGAAAACCCACCTTGGTCCTGTACTGCCTGATAGGGTCGCGGCTGGCCGACCAGTGGATGTAGCCAGTTGTTTTGGGAT
# modifications: lipid formulation
# B6: Rodent pegivirus (nucleic acid, listed as Pegivirus sp.)
# DNA: GGACTTCGGTCCCCCTGTTACTCTGCGAGCCACCGCAGAGCCAGGGTTGGTACGCCCGAGGTGTTAGACCCCGGCCGAAAGCTCCTAACCATGGGGTTAGTAGGACGTGGTAAATGCCACTGAGGGGTTGGAGAGCTGGTAGAGCGAGTAAGTCGGCGTAAGGCCCGAGTACGGGCCTCCCAGCCCGGGTCAGCCTAAACCTGGCTGTGATACCCGGTGCATGGAGGGCGTGTCCCAACGCTCGATCGCTGTAGGGTGGGTCCCTGCAGTTGGGTGTGGCTACCCTGCTCGTACTGCTTGATAGAGTCCCGGCGGACGGACCAGCTCTCGTCAGTCCGTGGAGTTGCAC
# modifications: lipid formulation
# B7: Pegivirus K (nucleic acid)
# DNA: AGAATGGTGTGATCCGTCGCCGCTCCAGCGGAAAGCGGGCGGGATCTAGTGGTTAGGGTTGTTCGCGTAAATCCCACACTAGTGGTACGCTCGTATAACGTGGGAGCAGCCGGTGGGGTCGACCCCCCACCTGGCGGCTGCTGAGCACCGGACGAAGCGCGGGGGGTGAACGCTAACCCGCGGCCCGGGCTGCCAACGTTAGGCACGTCTTGGCTGGAAGACGTTAAACACAGGGCCCCCCCTCAACCCTGATCCGAGGCCAGAGACCAAGGTACGCCGCCCTTTTAAAGGCGTTACTCGTCCAATAGGATCTCTCCGGCGGGTTGTCAAACCTTGCTGGCCCTGGTGATGGTTACGGGAGGGGGTGGGGCGGGGAGTAGAAGCCCCGCCCGGCATGGGGGTACCAAGCTCGGCACGCCCAGCACGCGTGGCGTAGGGGAAAAATCCTTCGGGTGACCCCTGGTACCATAAAGTAATTAACATGAGCATGCCGCTAGGGTGTGCTTTTTCTTCCTTCCTTGGGAAGGCGGTGGCACC
# modifications: lipid formulation; Pegivirus K
# B8: Human pegivirus 2: "an IRES is an IRES sequence of ... Human Pegivirus 2" (nucleic acid, listed as Pegivirus sp.)
# DNA: AACTGTTGTTGTAGCAATGCGCATATTGCTACTTCGGTACGCCTAATTGGTAGGCGCCCGGCCGACCGGCCCCGCAAGGGCCTAGTAGGACGTGTGACAATGCCATGAGGGATCATGACACTGGGGTGAGCGGAGGCAGCACCGAAGTCGGGTGAACTCGACTCCCAGTGCGACCACCTGGCTTGGTCGTTCATGGAGGGCATGCCCACGGGAACGCTGATCGTGCAAAGGGATGGGTCCCTGCACTGGTGCCATGCGCGGCACCACTCCGTACAGCCTGATAGGGTGGCGGCGGGCCCCCCCAGTGTGACGTCCGTGGAGCGCAAC
# B9: Theiler's disease-associated virus (nucleic acid)
# DNA: TGATACCGTGTCCCGGTACGACCTCGCGCGTCCCCAAGCTCGCCCTGAGGGGGGAGCGTAAGGGCGCGTAGTGGGGTAGCCCCCCAAACCGAGCCACCCTAGTGAGTGACTTTAGAATGGTTAGGGAGACTACCGCCTTCGCTGTTTGGGGACCTAATGATCCGCGTGCCAGGGTTCTTCGGGTAAATCCCGGCGCGGTGTTTTGGGTTCAGGGCAGTAGGGGCAGACGGGCCAGCAGTCGCTGGTTCCTGGTACCACCACCCTATCCGGACGACCTCCCTCACGAAAGGTCGCCACGGTCTGTGGCTCGACGACGCCTATAATTCAGTCCGAGGGGCGCAGCCCTCGTTAAACTTAGGCAAGGTTCCTCGCCATTGATTTGGCCAGGGGTTTAAGTGAACGCCGCCCTTTTAATGTTTAATAGGGTTCTTTCCCGGCGGGTTGACAAACACTTCCCTGGGCTCTTCGTTGGCCTCGGTTCCTTGATGCTTCGGCACCCATGAGCGCACAGGGGGGGGACCCTGCGACAGTCCGCCAAGAGGAAAATCCTTCGGGTGACCTCGTGCGCAACCCAATCCCTTCTTCTTCCACATGGCGTGTCTGTGGTGCATGCTGTG
# modifications: lipid formulation; source: /note="Description of Unknown: Theiler's disease-associated virus sequence"
# System: HEK293 cells
# Assay type: cell-based, human
# Settings: circular RNA encoding Gluc with the listed IRES (UTR truncated to 675 nt) transfected into HEK293 cells; supernatant after 24 hours
row,Molecule,Expression (luminescence from secreted Gluc protein)
1,B1,8.61E+04
2,B2,1.36E+05
3,B3,8.55E+04
4,B4,8.40E+04
5,B5,8.82E+06
6,B6,1.79E+05
7,B7,8.07E+04
8,B8,3.14E+05
9,B9,7.84E+04
